In doi:10.1101/2022.01.31.478542:

Key:
turbidity = settings: other: turbidity (light scattering at 340 nm) of cell-free assembly
P04590 = experiment: turbidity; settings: other: turbidity (light scattering at 340 nm) of cell-free assembly

Row | Substance | fold lower turbidity (A340 nm) at 120 min than WT (turbidity) | normalized A340 nm (turbidity) (turbidity) | further results
1 | HIV-2 CA-NC protein (Gag amino acids 136-431), CA A41D mutant | 25-fold (A41D) lower than that of WT | – | normalized A340 nm (turbidity), whole time course (turbidity): low turbidity readings (i.e., < 0.36)
2 | HIV-2 CA-NC protein (Gag amino acids 136-431), CA G38M mutant | 7.0-fold (i.e., G38M, N127E, I152A) | 0.34 | –
3 | HIV-2 CA-NC protein (Gag amino acids 136-431), CA I152A mutant | 7.0-fold (i.e., G38M, N127E, I152A) | 0.65 | –
4 | HIV-2 CA-NC protein (Gag amino acids 136-431), CA L19A mutant | – | 1.77 | –
5 | HIV-2 CA-NC protein (Gag amino acids 136-431), CA N127E mutant | 7.0-fold (i.e., G38M, N127E, I152A) | – | –
6 | HIV-2 CA-NC protein (Gag amino acids 136-431), wild type | – | – | normalized A340 nm (turbidity), peak at 20 min (P04590): peaked at 20 min (i.e., 1.27); normalized A340 nm (turbidity), stable value after the peak (P04590): remained stable (i.e., 0.56)
